Test results taken from patent publication US20120282257A1.

How the values were obtained:
[1] = molecular target: human CD99 on live/intact cells (human) (UniProt P14209); assay: flow cytometry, PBMC
[2] = molecular target: human CD99 on live/intact cells (human) (UniProt P14209); assay: flow cytometry, live MOS cells (osteosarcoma)
[3] = molecular target: human CD99 on live/intact cells (human) (UniProt P14209); assay: flow cytometry, live MG-63 cells (osteosarcoma)
[4] = molecular target: human CD99 on live/intact cells (human) (UniProt P14209); assay: flow cytometry, live U2-OS cells (osteosarcoma)
[5] = molecular target: human CD99 on live/intact cells (human) (UniProt P14209); assay: flow cytometry, live H-825 cells (Ewing sarcoma)
[6] = molecular target: human CD99 on live/intact cells (human) (UniProt P14209); assay: flow cytometry, live HSSC163 cells (mesenchymal)
[7] = molecular target: human CD99 on live/intact cells (human) (UniProt P14209); assay: flow cytometry, live HSSC168 cells (mesenchymal)
[8] = molecular target: human CD99 on live/intact cells (human) (UniProt P14209); assay: flow cytometry, live RD-ES cells (Ewing sarcoma)
[9] = molecular target: human CD99 on live/intact cells (human) (UniProt P14209); assay: flow cytometry, live RM-82 cells (Ewing sarcoma)
[10] = molecular target: human CD99 on live/intact cells (human) (UniProt P14209); assay: flow cytometry, live TC-71 cells (Ewing sarcoma)
[11] = molecular target: human CD99 on live/intact cells (human) (UniProt P14209); assay: flow cytometry, live IOR/OS7 cells (osteosarcoma)
[12] = molecular target: human CD99 on live/intact cells (human) (UniProt P14209); assay: flow cytometry, live SKES-1 cells (Ewing sarcoma)

UniProt P14209, sequence (P14209 23-185): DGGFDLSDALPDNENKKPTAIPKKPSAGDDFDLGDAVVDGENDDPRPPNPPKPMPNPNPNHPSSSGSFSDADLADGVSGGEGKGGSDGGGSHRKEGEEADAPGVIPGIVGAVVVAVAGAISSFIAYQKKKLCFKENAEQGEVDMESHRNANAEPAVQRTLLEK

mAbO13 (antibody)
percent of cells positive [1]: 75 to 100%
percent of cells positive [2]: 75 to 100%
percent of cells positive [3]: 75 to 100%
percent of cells positive [4]: 50 to 75%
percent of cells positive [5]: 75 to 100%
percent of cells positive [6]: 50 to 75%
percent of cells positive [7]: 75 to 100%
percent of cells positive [8]: 75 to 100%
percent of cells positive [9]: 75 to 100%
percent of cells positive [10]: 75 to 100%
percent of cells positive [11]: 75 to 100%
percent of cells positive [12]: 75 to 100%
